From paper PMC4838387, “PolDIP2 interacts with human PrimPol and enhances its DNA polymerase activities” come the findings set out here.

In series [1] the target is T1, PrimPol24-354 (AEP catalytic domain) (human, UniProt Q96LW4 24-354).
T1 sequence: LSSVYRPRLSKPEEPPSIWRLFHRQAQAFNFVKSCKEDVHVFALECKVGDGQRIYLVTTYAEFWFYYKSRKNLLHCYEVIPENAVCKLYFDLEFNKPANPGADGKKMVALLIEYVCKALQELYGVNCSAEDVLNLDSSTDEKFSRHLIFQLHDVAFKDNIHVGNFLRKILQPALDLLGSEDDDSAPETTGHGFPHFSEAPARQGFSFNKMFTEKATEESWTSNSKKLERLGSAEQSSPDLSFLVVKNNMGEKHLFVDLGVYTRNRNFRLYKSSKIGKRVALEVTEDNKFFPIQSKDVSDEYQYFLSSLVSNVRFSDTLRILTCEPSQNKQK
Briefly: EMSA; PrimPol 0.05-1 uM, 10 mM Mg2+, no PolDIP2; EMSA: 10 mM Bis-Tris-propane-HCl pH 7.0, 10 mM MgCl2, 100 uM DTT, 20 nM DNA; 5% native PAGE, 0.5x TBE; binding temperature not stated. As to conditions: protein: recombinant; label: 5'-HEX on primer; 3'-biotin on template; 20 bp duplex; template 5' overhang 77 nt.

In a further series the target is T2, PolDIP2 (untagged) (UniProt Q9Y2S7 1-368).
T2 sequence: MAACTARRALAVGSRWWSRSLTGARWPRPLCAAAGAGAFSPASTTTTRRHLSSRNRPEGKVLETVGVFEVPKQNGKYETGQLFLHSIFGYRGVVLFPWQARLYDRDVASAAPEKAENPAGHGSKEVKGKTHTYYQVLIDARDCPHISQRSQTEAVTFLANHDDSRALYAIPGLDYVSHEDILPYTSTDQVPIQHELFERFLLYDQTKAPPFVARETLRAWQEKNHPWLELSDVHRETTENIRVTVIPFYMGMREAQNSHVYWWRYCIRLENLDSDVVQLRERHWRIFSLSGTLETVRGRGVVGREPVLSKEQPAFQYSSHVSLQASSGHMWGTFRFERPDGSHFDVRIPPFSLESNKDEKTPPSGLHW
Kind of series: EMSA; PolDIP2 alone (100 nM in Fig 2A), 10 mM Mg2+; EMSA: 10 mM Bis-Tris-propane-HCl pH 7.0, 10 mM MgCl2, 100 uM DTT, 20 nM DNA; 5% native PAGE, 0.5x TBE; binding temperature not stated. As to conditions: protein: recombinant; tags: none (GST cleaved with PreScission protease); label: 5'-HEX on primer; 3'-biotin on template; 20 bp duplex; template 5' overhang 77 nt. On the technique in general: In EMSA bound probe runs differently from free probe, usually more slowly.

A further series deals with T3, PrimPol^1–354 (human) (UniProt Q96LW4).
T3 sequence: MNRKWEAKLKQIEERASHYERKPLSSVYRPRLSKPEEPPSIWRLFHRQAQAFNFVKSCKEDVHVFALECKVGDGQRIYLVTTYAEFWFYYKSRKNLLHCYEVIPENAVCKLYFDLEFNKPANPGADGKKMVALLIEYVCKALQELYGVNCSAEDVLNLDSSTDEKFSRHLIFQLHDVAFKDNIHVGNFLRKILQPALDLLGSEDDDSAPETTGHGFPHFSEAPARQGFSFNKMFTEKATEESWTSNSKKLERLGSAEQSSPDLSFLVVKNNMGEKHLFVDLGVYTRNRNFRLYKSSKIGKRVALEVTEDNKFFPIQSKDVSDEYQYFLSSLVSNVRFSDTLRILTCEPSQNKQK

For series [2], the target named is T4, full-length human PrimPol (human) (UniProt Q96LW4).
T4 sequence: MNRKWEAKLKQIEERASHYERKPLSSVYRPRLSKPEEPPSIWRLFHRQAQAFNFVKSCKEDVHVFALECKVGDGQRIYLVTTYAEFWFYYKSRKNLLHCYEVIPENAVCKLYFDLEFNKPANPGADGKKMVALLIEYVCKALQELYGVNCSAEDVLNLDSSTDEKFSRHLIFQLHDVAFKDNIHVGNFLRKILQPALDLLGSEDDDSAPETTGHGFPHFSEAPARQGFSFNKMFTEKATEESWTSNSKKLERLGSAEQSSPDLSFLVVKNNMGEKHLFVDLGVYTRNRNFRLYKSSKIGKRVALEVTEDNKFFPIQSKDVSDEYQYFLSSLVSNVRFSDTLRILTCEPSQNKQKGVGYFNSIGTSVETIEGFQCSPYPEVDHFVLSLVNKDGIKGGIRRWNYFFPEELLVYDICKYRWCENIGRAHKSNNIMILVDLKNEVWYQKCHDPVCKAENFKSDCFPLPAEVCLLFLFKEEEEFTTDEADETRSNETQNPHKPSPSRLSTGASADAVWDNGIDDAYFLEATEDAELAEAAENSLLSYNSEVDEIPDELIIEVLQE

B1: 20/97-mer primer/template (HP-20 / ND-97) (mixed)
DNA 1: TGTCGTCTGTTCGGTCGTTC
DNA 2: ACCGCGAACTTGAATTCTAGTTCAGTCTAAATGCTCTCAAGCACTGAGCAATTCACAACATATGGCTTTCGATTACCGAACGACCGAACAGACGACA
As for B1, the figures for the binding result (in series [1]; with PolDIP2 (untagged)) were “binds” and “no binding”, respectively.

B2: GST-PolDIP2 (natural protein)
chain: SSRNRPEGKVLETVGVFEVPKQNGKYETGQLFLHSIFGYRGVVLFPWQARLYDRDVASAAPEKAENPAGHGSKEVKGKTHTYYQVLIDARDCPHISQRSQTEAVTFLANHDDSRALYAIPGLDYVSHEDILPYTSTDQVPIQHELFERFLLYDQTKAPPFVARETLRAWQEKNHPWLELSDVHRETTENIRVTVIPFYMGMREAQNSHVYWWRYCIRLENLDSDVVQLRERHWRIFSLSGTLETVRGRGVVGREPVLSKEQPAFQYSSHVSLQASSGHMWGTFRFERPDGSHFDVRIPPFSLESNKDEKTPPSGLHW
As for B2, the K half of the stimulation of primer extension by PrimPol 1-354 (20 nM) on 20/50-mer DNA, GST-PolDIP2 0-120 nM with PrimPol^1–354 (human) was found to be 33.9 nM. The molecule further had a K half of the stimulation of primer extension by PrimPol (20 nM) on 20/50-mer DNA, GST-PolDIP2 0-120 nM in series [2] of 41 nM.
